# Assay results: US11945858B2, “Antibodies and antibody fragments against HNAV1.7 channel and their use in pain and cancer indications” (NATIONAL RESEARCH COUNCIL OF CANADA, priority 2018, dated 2024)
# Values joined by “and” are separate entries in the source; they are usually repeats but may differ in a detail not shown here. Equal values may be shown once.
# B1: DI-4: VHH from FC5DIE3IR llama immune library; SEQ ID NO: 47 (protein)
# VHH: QVQLVESGGGLVQPGGSLRLSCAASGFTFSNYWMYWVRQAPGKGLERVSSIYISGGNTYYADSVKGRFTISRDNAKNTLYLQMNSLKSEDTAVYYCVKGDTFGGMDYWGKGTQVTVSS
# modifications: DI-4
# B2: DI-28: VHH from FC5DIE3IR llama immune library; SEQ ID NO: 54 (protein)
# VHH: QAQVQLVESGGGLVQAGGSLRLSCAASGRTFSSSGMGWFRQAPGKDRELVAGISWSGDSAYYANSVAGRFTISRDNINNTVYLQMNSLKPEDTAVYYCAARQGGRNYATSPREYDYWGQGTQVTVSS
# modifications: DI-28
# B3: DI-48: VHH from FC5DIE3IR llama immune library; SEQ ID NO: 59 (protein)
# VHH: QAQVQLVESGGGLVQAGGSLRLSCAASGRTFSTYVMGWFRQTPGKEREFVAGFSWSGDYAIYVNSVKGRFTISRDNAKNTVYLQMNSLRPEDTAVYYCAARQRGGYSGRSYYTGRNDYEYWGQGTQVTVSS
# modifications: DI-48
# B4: DI-16: VHH from FC5DIE3IR llama immune library; SEQ ID NO: 49; clone DI-11 has identical sequence (protein)
# VHH: QAQVQLVESGGGLVQAGGSLRLSCAASGRTVSSYTMGWFRQAPGKERRFVATVNSSGRGTHYADSVKGRFTISRDNAKNTVYLQMNSLKPEDTAVYYCAAAPYPDGSLGPGYDYWGQGTQVTVSS
# modifications: DI-16
# Legend:
# [1] = system: CFA-induced thermal hyperalgesia; test: Hargreaves Model of Hyperalgesia in rats; format: in vivo, rat
# Experimental: Hargreaves Model of Hyperalgesia in rats. Rats aged 4-6 weeks (weight range, 180-220 g) were used for intraplantar (ipl) administrations of various antibodies and evaluation of their efficacy in the Hargreaves model of inflammatory pain. Chronic inflammatory pain is induced by injecting a low volume (50 μl) of complete Freund's adjuvant (CFA; heat-killed M. tuberculosis—Sigma, St. Louis, Mo.—suspended in oil:saline 2:1 emulsion) into the right hind paw. The paw withdrawal latency in response to the application of a radiant stimulus onto the plantar surface of both right and left paw was measured using the plantar Analgesia Meter equipment for paw stimulation (IITC Life Science, Woodland Hills, Calif.). The time taken by the animal to respond by licking or flicking its paw is interpreted as positive response (paw withdrawal latency). After 48 h of the CFA injection, the baseline for latency paw withdrawal was measured and the mAbs tested. […] A cut-off time (20 sec) is established at the end of which the heat source shuts off automatically to avoid tissue damage. Animals were kept (randomized) one per cage and staff performing pain experiments are blinded to the content of injectable compounds. Percentage of maximum possible effect (% MPE) was calculated using the formula % MPE=(Test Latency−Baseline Latency)×100/(Cut-off−Baseline Latency).
# [2] = system: OD1-evoked Nav1.7-mediated spontaneous pain behaviours; format: in vivo, mouse; conditions: 100 μg, injected 60 minutes prior to OD1; 20 min after the injection
# FC5DIE3IR = target: T1, FC5DIE3IR (Homo sapiens, UniProt Q15858); test: Surface Plasmon Resonance for VHH antibodies, immobilized FC5DIE3IR; format: binding; conditions: for Rmax (RU) / Kd / ka / kd: immobilized FC5DIE3IR; for ka / kd: 25 C
# T1 construct: The supernatant was collected and loaded on a 5 ml MabSelect™ SuRe™ column; made in house; host or cells: CHO-3E7 (transient, pTT5 vector), purified from supernatant
# Experimental: (§1) Surface Plasmon Resonance for VHH antibodies. For SPR experiments, IMAC-purified VHHs DI-D, DI-4, DI-16, DI-28 and DI-48 were passed through a Superdex 75 (GE Healthcare) column for SEC purification in HBS-EP+buffer (10 mM HEPES, pH 7.4, containing 150 mM NaCl, 3 mM EDTA and 0.05% P20), connected to an AKTAPurifier (GE Healthcare) at a flow rate of 1 ml/min. Monomeric VHH fractions were collected and protein concentration determined by measuring A280 measurement. Using a Biacore T200 instrument (GE Healthcare), approximately 500-1000 RUs of FC5DIE3IR, FC5 and an irrelevant VHH (2A3-H4) were immobilized on a CM5 Series S sensor chip (GE Healthcare) at pH 4.0 using standard amine coupling according to the manufacturer's instructions (GE Healthcare). […] Surfaces were regenerated by washing with a 120 s pulse of 10 mM glycine pH 1.5. Data were analyzed with Biacore T200 Software v 3.0 and affinities determined using steady state binding or a 1:1 binding model.
# FC5 = test: Surface Plasmon Resonance for VHH antibodies, immobilized FC5; format: binding; conditions: SPR; 25 C
# Experimental: as §1
# 2A3-H4 = test: Surface Plasmon Resonance for VHH antibodies, immobilized irrelevant VHH 2A3-H4; format: binding; conditions: SPR; 25 C
# Experimental: as §1
# FC5, sequence (as listed by the source): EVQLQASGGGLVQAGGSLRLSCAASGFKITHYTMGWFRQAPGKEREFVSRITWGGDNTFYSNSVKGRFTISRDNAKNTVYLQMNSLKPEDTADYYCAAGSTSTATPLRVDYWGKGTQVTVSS
Molecule,Rmax (RU) (FC5DIE3IR),"Binding to immobilized FC5 (comment, in words) (FC5)","Binding to immobilized 2A3-H4 (comment, in words) (2A3-H4)",Kd (FC5DIE3IR) [nM],ka (FC5DIE3IR) [M⁻¹ s⁻¹],kd (FC5DIE3IR) [s⁻¹],also measured
TLESEEDFRKYFYYLEGSKDALLCGFSTDS (Peptide #2 = 30 amino acid sequence located on loop3 of the D1 domain of the Nav1.7 polypeptide) [P2],–,–,–,–,–,–,"Latency paw withdrawal time ([1]; peptide 375 μg co-injected with 3A8 75 μg, intraplantar (FIG. 18)): 6.76 ± 0.32 s; 3A8-induced reversal of hyperalgesia (% MPE) ([1]; peptide 375 μg co-injected with 3A8 75 μg, intraplantar, 4 h): 13.49%±2.62"
"CC(=O)Nc1cccc(Nc2ncnc(N3CCC(OCc4ccc(OC(F)(F)F)cc4)CC3)n2)c1C [TC-N1752, reference compound]",–,–,–,–,–,–,"Percentage of effect after injection (on left paw withdrawal) ([1]; 100 μg intraplantar, 0 h): 0%; Latency paw withdrawal ([1]; 100 μg intraplantar, 1 h): 8.15 ± 1.6 s and 8.15 ± 2.60 s; Percentage of effect after injection (on left paw withdrawal) ([1]; 100 μg intraplantar, 1 h): 37.01%; Latency paw withdrawal ([1]; 100 μg intraplantar, 2 h): 11.17 ± 1.19 s; Percentage of effect after injection (on left paw withdrawal) ([1]; 100 μg intraplantar, 2 h): 44.77%; Latency paw withdrawal ([1]; 100 μg intraplantar, 4 h): 11.90 ± 0.99 s; Percentage of effect after injection (on left paw withdrawal) ([1]; 100 μg intraplantar, 4 h): 49.05%; Percentage of maximum possible effect (% MPE) ([1]; 100 μg intraplantar, 4 h (FIG. 27B)): 46.47%±7.14; Time spent in pain behaviors (saline plus OD1 = 100%) [2]: 51.62%±4.85"
B1,469.2,No binding,Very low non-,–,–,–,–
B2,318.3,No binding,No binding,4.4,461000,0.00205,–
B3,–,No binding,Very low,–,–,–,"Binding to immobilized FC5DIE3IR (comment, in words) (FC5DIE3IR; SPR): Low affinity,"
B4,317.9,No binding,No binding,4.3,619000,0.00266,–
